For series [1], the system named is glucocorticoid receptor (hGR) (Homo sapiens). As to the kind of experiment: cell_activity. As to conditions: dexamethasone 1e-7 M, MTV-Luc in CV-1.
In series [2] the target is T1, retinoic acid receptor alpha (RARalpha) (UniProt P10276 P10276:1-462).
T1 sequence: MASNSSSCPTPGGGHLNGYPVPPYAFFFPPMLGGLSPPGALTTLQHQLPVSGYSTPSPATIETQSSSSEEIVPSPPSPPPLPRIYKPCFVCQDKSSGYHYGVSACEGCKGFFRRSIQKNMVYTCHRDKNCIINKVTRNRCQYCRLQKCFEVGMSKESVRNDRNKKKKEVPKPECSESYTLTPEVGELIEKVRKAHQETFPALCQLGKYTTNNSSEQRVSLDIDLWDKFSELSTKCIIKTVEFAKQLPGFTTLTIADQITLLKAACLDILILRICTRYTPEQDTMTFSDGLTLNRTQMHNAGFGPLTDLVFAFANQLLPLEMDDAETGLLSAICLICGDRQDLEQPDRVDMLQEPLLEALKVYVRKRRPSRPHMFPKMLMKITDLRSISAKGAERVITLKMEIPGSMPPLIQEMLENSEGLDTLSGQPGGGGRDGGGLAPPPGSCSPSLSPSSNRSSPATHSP
As to the kind of experiment: cell_activity; 100 nM RA, delta-MTV-TREp-CAT in CV-1.

The target in series [3] is T2, thyroid hormone receptor alpha (rTRalpha) (Rattus norvegicus, UniProt P63059-2 P63059-2:1-410).
T2 sequence: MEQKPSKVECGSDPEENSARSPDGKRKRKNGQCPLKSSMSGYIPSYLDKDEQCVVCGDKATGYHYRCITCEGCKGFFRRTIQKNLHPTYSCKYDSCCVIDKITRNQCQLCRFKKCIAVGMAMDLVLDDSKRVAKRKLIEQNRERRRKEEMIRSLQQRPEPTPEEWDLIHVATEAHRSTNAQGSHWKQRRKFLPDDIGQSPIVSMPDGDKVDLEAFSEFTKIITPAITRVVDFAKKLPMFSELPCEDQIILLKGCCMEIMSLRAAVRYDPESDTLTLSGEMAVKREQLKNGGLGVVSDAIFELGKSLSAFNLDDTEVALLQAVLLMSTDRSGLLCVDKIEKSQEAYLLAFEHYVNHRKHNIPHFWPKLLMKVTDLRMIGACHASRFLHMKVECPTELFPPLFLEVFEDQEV
As to the kind of experiment: cell_activity; T3 100 nM stimulation of tk-TREp-CAT in CV-1; 80% decrease of basal activity without hormone. As to conditions: tags: RSV expression vector RS-rTRalpha in CV-1 cells.

“mouse mammary tumor virus (MTV) promoter” yielded an activity in series [1] of 3000 fold.

B1: TREp palindromic thyroid response element (dsDNA)
DNA 1: TCAGGTCATGACCTGA
DNA 2: TCAGGTCATGACCTGA
On to B1, for which the activity in series [2] amounted to 25 fold; in series [3], 20 fold.

The record behind these values is patent publication US5602009, “Dominant negative chimeras of the steroid/thyroid superfamily of receptors” (The Salk Institute for Biological Studies).
